Assay results published in the supplement of paper PMC10567573.

B1: ZNF263 (parent)
chain: CSECGESFSRSSRLMSHQRTHTG

Variants of: B1
Assay: protein stability index of a GFP-peptide fusion (GPS, HEK-293T) (PSI 1-6); higher = more stable
Conditions: c terminus: native
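Also: lentivirally expressed fusions sorted by FACS into six bins by GFP to DsRed ratio, PSI derived from sequencing read proportions per bin multiplied by bin number.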

Row | Variant | protein stability index
1 | CSECGESFSRSSRLMSHQRTHTE [G23E] | 4.44
2 | CSECGESFSRSSRLMSHQRTHTL [G23L] | 4.69
3 | CSECGESFSRSSRLMSHQRTHTC [G23C] | 3.33
4 | CSECGESFSRSSRLMSHQRTHTF [G23F] | 3.74
5 | CSECGESFSRSSRLMSHQRTHTI [G23I] | 4.41
6 | CSECGESFSRSSRLMSHQRTHTK [G23K] | 4.89
7 | CSECGESFSRSSRLMSHQRTHTH [G23H] | 3.59
8 | CSECGESFSRSSRLMSHQRTHTN [G23N] | 4.85
9 | CSECGESFSRSSRLMSHQRTHTA [G23A] | 2.97
10 | CSECGESFSRSSRLMSHQRTHTM [G23M] | 4.34
11 | CSECGESFSRSSRLMSHQRTNTG [H21N] | 2.4
12 | CSECGESFSRSSRLMSHQRTFTG [H21F] | 2.47
13 | CSECGESFSRSSRLMSHQRTYTG [H21Y] | 2.64
14 | CSECGESFSRSSRLMSHQRTTTG [H21T] | 1.6
15 | CSECGESFSRSSRLMSHQRTETG [H21E] | 2.15
16 | CSECGESFSRSSRLMSHQRTCTG [H21C] | 2.72
17 | CSECGESFSRSSRLMSHQRTDTG [H21D] | 3.31
18 | CSECGESFSRSSRLMSHQRTKTG [H21K] | 1.78
19 | CSECGESFSRSSRLMSHQRTSTG [H21S] | 2.74
20 | CSECGESFSRSSRLMSHQRTMTG [H21M] | 1.45
21 | CSECGESFSRSSRLMSHQRTGTG [H21G] | 3.01
22 | CSECGESFSRSSRLMSHQRTWTG [H21W] | 1.87
23 | CSECGESFSRSSRLMSHQRTLTG [H21L] | 2.52
24 | CSECGESFSRSSRLMSTQRTHTG [H17T] | 1.46
25 | CSECGESFSRSSRLMSSQRTHTG [H17S] | 1.51

Row | Variant | protein stability index
26 | CSECGESFSRSSRLMSNQRTHTG [H17N] | 1.57
27 | CSECGESFSRSSRLMSWQRTHTG [H17W] | 3.17
28 | CSECGESFSRSSRLMSPQRTHTG [H17P] | 1.11
29 | CSECGESFSRSSRLMSQQRTHTG [H17Q] | 2.04
30 | CSECGESFSRSSRLMSYQRTHTG [H17Y] | 1.76
31 | CSECGESFSRSSRLMSHQRTHAG [T22A] | 2.03
32 | CSECGESFSRSSRLMSHQRTHIG [T22I] | 2.95
33 | CSECGESFSRSSRLMSHQRTHNG [T22N] | 2.29
34 | CSECGESFSRSSRLMSHQRTHQG [T22Q] | 2.43
35 | CSECGESFSRSSRLMSHQRTHSG [T22S] | 2.23
36 | CSECGESFSRSSRLMSHQRTHYG [T22Y] | 2.25
37 | CSECGESFSRSSRLMSHQRTHLG [T22L] | 4.2
38 | CSECGESFSRSSRLMSHQRTHDG [T22D] | 4.27
39 | CSECGESFSRSSRLMSHQRTHVG [T22V] | 3.03
40 | CSECGESFSRSSRLMSHQRTHEG [T22E] | 3.76
41 | CSECGESFSRSSRLMSHQRTHFG [T22F] | 3.75
42 | CSECGESFSRSSRLMSHQRTHCG [T22C] | 2.08
43 | CSECGESFSRSSRLMSHQRTHWG [T22W] | 2.25
44 | CSECGESFSRSSRLMSHQRTHMG [T22M] | 3.83
45 | CSECGESFSRSSRLMSHQRAHTG [T20A] | 3.7
46 | CSECGESFSRSSRLMSHQRCHTG [T20C] | 2.35
47 | CSECGESFSRSSRLMSHQRLHTG [T20L] | 3.21
48 | CSECGESFSRSSRLMSHQRGHTG [T20G] | 2.96
49 | CSECGESFSRSSRLMSHQRQHTG [T20Q] | 3.26
50 | CSECGESFSRSSRLMSHQRDHTG [T20D] | 3.75

Row | Variant | protein stability index
51 | CSECGESFSRSSRLMSHQRFHTG [T20F] | 2.48
52 | CSECGESFSRSSRLMSHQRVHTG [T20V] | 2.9
53 | CSECGESFSRSSRLMSHQRWHTG [T20W] | 1.92
54 | CSECGESFSRSSRLMSHQRNHTG [T20N] | 1.93
55 | CSECGESFSRSSRLMSHQRKHTG [T20K] | 3.72
56 | CSECGESFSRSSRLMSHQRSHTG [T20S] | 2.44
57 | CSECGESFSRSSRLMSHQRYHTG [T20Y] | 2.08
58 | CSECGESFSRSSRLMSHQRMHTG [T20M] | 1.95
59 | CSECGESFSRSSRLMSHQRIHTG [T20I] | 4.43
60 | CSECGESFSRSSRLMSHQREHTG [T20E] | 2.45
61 | CSECGESFSRSSRLMSHQRHHTG [T20H] | 3.72
62 | CSECGESFSRSSRLMSHDRTHTG [Q18D] | 2.58
63 | CSECGESFSRSSRLMSHSRTHTG [Q18S] | 2.13
64 | CSECGESFSRSSRLMSHNRTHTG [Q18N] | 2.16
65 | CSECGESFSRSSRLMSHHRTHTG [Q18H] | 2.57
66 | CSECGESFSRSSRLMSHPRTHTG [Q18P] | 2.22
67 | CSECGESFSRSSRLMSHIRTHTG [Q18I] | 3.21
68 | CSECGESFSRSSRLMSHLRTHTG [Q18L] | 3.02
69 | CSECGESFSRSSRLMSHMRTHTG [Q18M] | 4.32
70 | CSECGESFSRSSRLMSHKRTHTG [Q18K] | 2.22
71 | CSECGESFSRSSRLMSHRRTHTG [Q18R] | 1.89
72 | CSECGESFSRSSRLMSHGRTHTG [Q18G] | 2.49
73 | CSECGESFSRSSRLMSHCRTHTG [Q18C] | 2.5
74 | CSECGESFSRSSRLMSHWRTHTG [Q18W] | 2.77
75 | CSECGESFSRSSRLMSHYRTHTG [Q18Y] | 2.39

Row | Variant | protein stability index
76 | CSECGESFSRSSRLMSHERTHTG [Q18E] | 2.76
77 | CSECGESFSRSSRLMSHTRTHTG [Q18T] | 2.24
78 | CSECGESFSRSSRLMSHARTHTG [Q18A] | 2.48
79 | CSECGESFSRSSRLMSHFRTHTG [Q18F] | 2.38
80 | CSECGESFSRSSRLMSHQLTHTG [R19L] | 3.49
81 | CSECGESFSRSSRLMSHQNTHTG [R19N] | 4.11
82 | CSECGESFSRSSRLMSHQFTHTG [R19F] | 3.55
83 | CSECGESFSRSSRLMSHQCTHTG [R19C] | 5
84 | CSECGESFSRSSRLMSHQYTHTG [R19Y] | 3.63
85 | CSECGESFSRSSRLMSHQSTHTG [R19S] | 3.46
86 | CSECGESFSRSSRLMSHQTTHTG [R19T] | 3.76
87 | CSECGESFSRSSRLMSHQPTHTG [R19P] | 2.44
88 | CSECGESFSRSSRLMSHQQTHTG [R19Q] | 3.63
89 | CSECGESFSRSSRLMSHQDTHTG [R19D] | 4.39
90 | CSECGESFSRSSRLMSHQKTHTG [R19K] | 5.13
91 | CSECGESFSRSSRLMSHQHTHTG [R19H] | 4.51
92 | CSECGESFSRSSRLMSHQITHTG [R19I] | 2.58
93 | CSECGESFSRSSRLMSHQVTHTG [R19V] | 2.73
94 | CSECGESFSRSSRLMSHQWTHTG [R19W] | 3.17
95 | CSECGESFSRSSRLMSHQETHTG [R19E] | 3.78
96 | CSECGESFSRSSRLMSHQMTHTG [R19M] | 3.43
97 | CSECGESFSRSSRLMSHQATHTG [R19A] | 4.1
